Source: patent US20200369764A1 (INNATE PHARMA, published 2020)

Columns and labels:
Human Siglec-7 (human) = Human Siglec-7 (human) (UniProt Q9Y286); assay: flow cytometry, fresh purified human NK cells (CD3-/CD56+), isotype control plot
Human Siglec-9 [1] = target: T1, Human Siglec-9 (human, UniProt Q9Y336 18-463); assay: as above
T1 construct: on transfected CHO cells, YTS Siglec-9* cells, or native on primary NK cells and moDC (see assay); also called huSiglec-9; CD329

Human Siglec-9 [2] = target: T1, Human Siglec-9; assay: flow cytometry titration on moDC, neuraminidase-treated against untreated
Description: moDC were desialylated for 2 hours with 25 mU neuraminidase (Roche Diagnostics).
Binding on moDCs and neuraminidase treated moDCs was tested in a titration experiment by flow cytometry. Cells were incubated 1h in Staining Buffer (SB) with primary antibodies at 10 μg/ml and a series of dilution of 1:10. They were washed two times with SB, then incubated 30 min with a Goat F(ab′)² Anti-Human IgG (Fc) PE (Jackson ImmunoResearch), and washed twice with SB.

T1 sequence (Q9Y336 18-463): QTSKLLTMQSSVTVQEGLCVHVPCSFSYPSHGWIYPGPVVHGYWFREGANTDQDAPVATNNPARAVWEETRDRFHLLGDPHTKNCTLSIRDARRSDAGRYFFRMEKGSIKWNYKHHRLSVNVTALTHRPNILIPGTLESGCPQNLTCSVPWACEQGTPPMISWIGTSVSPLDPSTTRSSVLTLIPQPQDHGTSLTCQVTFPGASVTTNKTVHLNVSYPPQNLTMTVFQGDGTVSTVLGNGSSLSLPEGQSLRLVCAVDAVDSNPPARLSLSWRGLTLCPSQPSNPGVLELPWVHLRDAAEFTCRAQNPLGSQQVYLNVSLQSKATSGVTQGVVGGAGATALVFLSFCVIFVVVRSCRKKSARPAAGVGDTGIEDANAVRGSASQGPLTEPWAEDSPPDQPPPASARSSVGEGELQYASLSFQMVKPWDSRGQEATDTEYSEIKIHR
Sequence of Human Siglec-7 (human) (Q9Y286 19-467): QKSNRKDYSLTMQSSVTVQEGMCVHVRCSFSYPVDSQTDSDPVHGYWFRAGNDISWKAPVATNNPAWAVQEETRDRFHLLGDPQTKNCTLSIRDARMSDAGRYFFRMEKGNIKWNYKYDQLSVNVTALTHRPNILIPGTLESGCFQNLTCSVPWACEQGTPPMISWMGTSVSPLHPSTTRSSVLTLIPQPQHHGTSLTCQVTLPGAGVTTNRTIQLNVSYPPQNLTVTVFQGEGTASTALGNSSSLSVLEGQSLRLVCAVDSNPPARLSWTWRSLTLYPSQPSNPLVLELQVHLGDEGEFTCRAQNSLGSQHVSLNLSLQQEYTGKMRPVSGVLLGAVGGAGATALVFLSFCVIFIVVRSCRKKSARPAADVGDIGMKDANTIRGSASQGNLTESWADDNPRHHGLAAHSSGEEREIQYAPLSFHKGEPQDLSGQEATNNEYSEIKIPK

A % of NK cells in Q1 (APC positive, PE negative) (Human Siglec-7 (human)) of 0.975% and a % of NK cells in Q2 (APC positive and PE positive) (Human Siglec-7 (human)) of 0.34% were found for Isotype control - APC (antibody) in this work.

A % of NK cells in Q2 (APC positive and PE positive) (Human Siglec-9 [1]) of 0.34% and a % of NK cells in Q3 (PE positive, APC negative) (Human Siglec-9 [1]) of 2.54% were found for Isotype control - PE (antibody) in this work.

B1: mAbA (antibody, V domains shown)
VH: QVQLQQPGAELVKPGSPVKLSCKASYFTFTSYWMHWVRQRPGQGLEWIGEINPSNGHTNYNEKFESKATLTVDRSSSTAYMQLSSLTSEDSAVFYCANGVESYDFDDALDYWGQGTSVTVSS
VL: DIQMTQTTSSLSASLGDRVTISCRASQDINNYLNWYQQKPDGTIKLLIYYTSRLHSGVPSRFSGSGSGTDYSLTINNLEQEDIATYFCQQGNTLPFTFGGGTKLEIK
notes: chimeric human IgG1, heavy chain N297Q (Kabat EU numbering)
In the case of B1, the “fold enhancement of EC50 on moDC after neuraminidase treatment” value (shortened to “fold enhancement of EC50 on moDC”) (Human Siglec-9 [2]) is reported as 10 fold.

B2: mAbC (antibody, V domains shown)
VH: QIQLVQSGPELKKPGETVKISCKASGYTFTNYEMNWVKEAPGKGLKWMGWINTYTGESTYADDFKGRFAFSLETSASTVYLQINNLKDEDVATYFCVRDDYGRSYGFAYWGQGTLVTVSA
VL: NIVLTQSPASLTVSLGQRANISCRASESVDSYGNSFMHWYQQKPGQPPKLLIYLASKLESGVPARFSGSGSRTDFTLTIDPVETDDAATYYCHQNNEDPPWTFGGGTKLEIK
notes: as for B1
B2 was tested, and the “fold enhancement of EC50 on moDC” value (Human Siglec-9 [2]) was 10 fold.

B3: mAbD (antibody, V domains shown)
VH: QIQLVQSGPELKKPGETVKISCKASGYTFTDYSMHWVKQAPGKGLKWMGWIITETGEPTYADDFRGRFAFSLETSANTAYLQINNLKNEDTATYFCARDFDGYWGQGTTLTVSS
VL: DILMTQSPASLSASVGETVTITCRASENIYSYLAWYQQKRGKSPQFLVYNAKTLTEGVPSRFRGSGSGTQFSLKINSLQPEDFGTYYCQHHYGFPWTFGGGTKLEIK
notes: as for B1
B3 was tested, and the “fold enhancement of EC50 on moDC” value (Human Siglec-9 [2]) was 10 fold.
